The text below walks through data of patent US20190262327A1, “COMBINATION OF A BACE INHIBITOR AND AN ANTIBODY OR ANTIGEN-BINDING FRAGMENT FOR THE TREATMENT OF A DISORDER ASSOCIATED WITH THE ACCUMULATION OF AMYLOID BETA” (ASTRAZENECA AB, priority 2016, published 2019).

Entries after “also recorded” stand apart in the source; their conditions may differ.

One data set concerns the target T1, Aβ1-42 aggregate (Homo sapiens, UniProt P05067).
T1 construct: non-cross-linked A[…] 1-42 aggregate
Put plainly: Western blot of Abeta 42 aggregate preparation (PICUP and non PICUP). The format is binding. The note with it: primary antibody 2 ug/ml; non PICUP and PICUP Aβ42 aggregate. As for the experimental part:
To cross-link the A042 oligomers before SDS-PAGE, PICUP (photo-induced cross-linking of peptides) was carried out as follows. A 1 mM solution of Ru(Bpy) was created by adding 2 μl of stock (at 10 mM) to 18 μl of 1×PBS. In addition, a 20 mM solution of ammonium persulphate (APS) was created by adding […] of stock (at 200 mM) to 18 μl of 1×PBS. Unused stock was immediately snap-frozen on dry ice and returned to the −80° C. freezer. In the dark room, 5 μl of Ru(Bpy) was added to 80 μl of aggregate (neat 10 uM sample), followed by 5 μl of APS. Samples were irradiated with a lamp in the dark room for 10 secs. 30 uls of (4×) LDS Sample buffer was added immediately.
SDS-PAGE was then performed on cross-linked (PICUP) and non-cross-linked A[…] 1-42 aggregate. The solutions were incubated in a hot block at 70° C. for 10 minutes. Meanwhile, a marker was created by combining 5 μl of Magic Mark XP Western Protein Standard, 5 μl of Novex Sharp Pre-stained Protein Standard. After the ten-minute incubation, the samples plus marker were loaded onto a NuPAGE Novex 4-12% Bis-Tris Gels (1.0 mm, 15 well, 15 μl per well) with MES running buffer. The gels were run at 200 V for 35 minutes. […]
During the final washes, the chemi-luminescence SuperSignal West Dura substrate (Thermo Scientific; 34075) were allowed to warm to room temperature. […]
(A western blot detects proteins with antibodies after separation by electrophoresis.)

The target in data set [1] is T2, Amyloid beta 1-42 peptide (Rattus norvegicus, UniProt P08592).
T2 construct: Measurement of free Amyloid beta 1-42 peptide in rat CSF; from tissue; host or cells: CSF and brain homogenate of Sprague-Dawley rats
The experiment in a line: Free Amyloid beta 1-42 peptide in rat CSF (immunoprecipitation + ELISA). The format is in vivo. To be noted: for reduction of free Amyloid beta 1-42 peptide in CSF vs vehicle control: rats, 168 h after second dose. The method, then:
Eight-week old male albino Harlan Sprague-Dawley rats (n=8-12) received a single dose of Abet0380-GL IgG1-TM antibody by intravenous injection with a dosing vehicle of 25 mM Histidine, 7% Sucrose, 0.02% p80 surfactant, pH 6.0 at 5 ml/kg. Dosing solutions were made just before dosing. Animals were anaesthetized at the time indicated and cerebrospinal fluid (CSF) was aspirated from the cistema magna. CSF samples were centrifuged for 10 minutes at approximately 3000× g at 4° C. within 20 minutes of sampling to remove cells or debris. Samples were then frozen on dry ice and stored at −70° C. for subsequent analysis.
Measurement of free Amyloid beta 1-42 peptide in rat CSF was conducted using immunoprecipitation to remove Abet0380-GL bound Amyloid beta 1-42 peptide, followed by analysis by a commercial ELISA kit obtained from Invitrogen. Briefly, a solution of protein A beads (Dynabeads® Protein A; Invitrogen, UK; cat: 100-02D) was added to a 96 well non-skirted plate (polypropylene 0.2 ml; VWR International, UK; cat: 10732-4828) and washed twice with TBST (50 mM TBS; Sigma, UK; cat: T6664 plus 0.1% Tween20) using a magnet (DynaMag™ 96 side; Invitrogen, UK; cat: 123.31 D) to separate the beads from the solution. Thawed rat CSF samples (40 μl) were added to each well and incubated at […] with tilt rotation for 1 hour. The beads were then pelleted using the magnet and 30 μl of immunoprecipitated CSF samples were transferred to a 96 well plate from the ELISA kit (mouse Amyloid beta (1-42) colorimetric ELISA kit; Invitrogen, UK; cat: KMB3441) with 70 μl of the Standard Diluent Buffer already added (supplemented with protease inhibitor; Roche, UK; cat: 11836153001). Calibration standard samples were added to the plate in duplicate and the plate was incubated for 2 hours at room temperature with shaking. The plate was washed 4 times with 400 µl of wash buffer, 100 μl of the detection antibody solution was added to each well and the plate was incubated for 1 hour at room temperature with shaking. Again, the plate was washed 4 times with 400 μl of wash buffer, 100 μl of the secondary antibody working solution was added to each well and the plate was incubated for 30 minutes at room temperature with shaking. Finally, the plate was washed 4 times with 400 μl of wash buffer, 100 μl of stabilized Chromogen was added to each well and the plate was incubated for 30 minutes at room temperature in the dark. To stop the reaction, 100 μl of Stop Solution was added to each well and the plate was read within 2 hours at an absorbance of 450 nm. Single CSF samples were analyzed and data analysis was performed using Prism 4 (GraphPad, USA) with one-way ANOVA on log transformed data without adjustment for multiple comparisons.
To further investigate the effect of the Abet0380-GL IgG1-TM antibody in vivo, rats were administered weekly doses of 0.25, 0.5, 1, 5 or 10 mg/kg over 14 days. Animals were euthanized 168 hours after the second dose to measure levels of free Amyloid beta 1-42 peptide in CSF as well as total Amyloid beta 1-42 or 1-40 peptides in brain tissue.
The ability of antibody Abet0144-GL to sequester amyloid beta 1-42 was investigated in a PK-PD study in normal rats. Rats were intravenously administered Abet0144-GL (10 or 40 mg/kg) or vehicle weekly for 2 weeks (on days 0 and 7), and sacrificed a week after the 2nd dose. […] Free and total amyloid beta 1-42 levels were measured using assays described above.
A general note: In an ELISA, binding on a coated surface is turned into a signal by an enzyme label.

T2 sequence (P08592 672-713 limits assumed): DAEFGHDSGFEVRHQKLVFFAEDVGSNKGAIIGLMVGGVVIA
T1 sequence (P05067 672-713 limits assumed): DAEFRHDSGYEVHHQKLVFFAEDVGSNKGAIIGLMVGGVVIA

B1: Abet0380-GL IgG1-TM: germlined Abet0380; VH SEQ ID NO: 524, VL SEQ ID NO: 533; human IgG1 triple mutant format (antibody, listed as Homo sapiens, V domains shown)
VH: EVQLLESGGGLVQPGGSLRLSCAASMGNFNYQTMWWVRQAPGKGLEWVSVIGKTNENIAYADSVKGRFTISRDNSKNTLYLQMNSLRAEDTAVYYCAREWMDHSRPYYYYGMDVWGQGTLVTVSS
VL: SYELTQPPSVSVSPGQTASITCSGHNLEDKFASWYQQKPGQSPVLVIYRDDKRPSGIPERFSASNSGHTATLTISGTQAMDEADYYCSSQDTVTRVFGGGTKLTVL
modifications: human IgG1 triple mutant constant region; /note=“Abet0380-GL”
notes: germlined Abet0380; human IgG1 triple mutant format
B1: the “Abeta42 recognition profile by Western blot” value with Aβ1-42 aggregate is “specifically recognises Aβ1-42 monomer and low n oligomer species up to and including pentamer”. Moreover, the “effect on free Amyloid beta 1-42 in CSF” value in data set [1] (Sprague-Dawley rats, 0.25-10 mg/kg weekly over 14 days) was “dose-dependent decrease; also recorded: dose-dependent reduction”. The “reduction of free Amyloid beta 1-42 peptide in CSF vs vehicle control” value in data set [1] (0.25 mg/kg weekly over 14 days, not statistically significant) is 14%; in data set [1] (0.5 mg/kg weekly over 14 days) it was 47%; in data set [1] (1 mg/kg weekly over 14 days) it was 61%.
